Results on 4 molecules are retold here after publication doi:10.1101/2020.08.02.233007 (bioRxiv, 2020).

In data set [1] the target is T1, recombinant full-length UVR8^W285A from Sf9 cells (Arabidopsis), Q9FN03.
T1 chain: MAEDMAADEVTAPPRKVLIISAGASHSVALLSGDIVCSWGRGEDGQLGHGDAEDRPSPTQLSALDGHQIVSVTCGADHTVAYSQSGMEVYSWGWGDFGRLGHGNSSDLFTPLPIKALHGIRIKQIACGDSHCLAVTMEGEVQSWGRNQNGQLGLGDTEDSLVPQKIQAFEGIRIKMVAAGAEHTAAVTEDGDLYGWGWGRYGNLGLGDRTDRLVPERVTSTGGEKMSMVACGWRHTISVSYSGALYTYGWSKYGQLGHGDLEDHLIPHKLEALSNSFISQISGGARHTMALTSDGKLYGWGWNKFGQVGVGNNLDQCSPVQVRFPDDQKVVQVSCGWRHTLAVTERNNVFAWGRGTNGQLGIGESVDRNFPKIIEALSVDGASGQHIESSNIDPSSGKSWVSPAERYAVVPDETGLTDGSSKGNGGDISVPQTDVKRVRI
Nature of the data set: SEC. Particulars: remark: other sources report otherwise.

Data set [2] deals with the molecule itself. Nature of the data set: cross-linking.
The target of data set [3] is T2, UVR8^W285A overexpressed in uvr8-7/Pro35S:UVR8^W285A seedlings (Arabidopsis thaliana), Q9FN03.
T2 chain: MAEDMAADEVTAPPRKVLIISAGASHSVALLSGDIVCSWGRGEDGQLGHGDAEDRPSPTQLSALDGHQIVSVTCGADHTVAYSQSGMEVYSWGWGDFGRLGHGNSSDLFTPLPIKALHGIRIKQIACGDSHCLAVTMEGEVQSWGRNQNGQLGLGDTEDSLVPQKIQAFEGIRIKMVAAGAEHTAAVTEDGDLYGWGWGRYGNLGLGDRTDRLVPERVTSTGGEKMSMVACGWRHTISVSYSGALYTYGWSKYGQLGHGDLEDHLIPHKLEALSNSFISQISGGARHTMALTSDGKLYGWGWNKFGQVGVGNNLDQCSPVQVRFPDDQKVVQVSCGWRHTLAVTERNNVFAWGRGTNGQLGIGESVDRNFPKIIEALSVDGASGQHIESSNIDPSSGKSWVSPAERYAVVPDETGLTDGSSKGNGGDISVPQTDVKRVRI
In words: cross-linking. The note with it: remark: other sources report otherwise.

In data set [4] the target is T3, recombinant full-length UVR8 (wild type) from Sf9 cells (Arabidopsis, UniProt Q9FN03 1-440).
T3 sequence: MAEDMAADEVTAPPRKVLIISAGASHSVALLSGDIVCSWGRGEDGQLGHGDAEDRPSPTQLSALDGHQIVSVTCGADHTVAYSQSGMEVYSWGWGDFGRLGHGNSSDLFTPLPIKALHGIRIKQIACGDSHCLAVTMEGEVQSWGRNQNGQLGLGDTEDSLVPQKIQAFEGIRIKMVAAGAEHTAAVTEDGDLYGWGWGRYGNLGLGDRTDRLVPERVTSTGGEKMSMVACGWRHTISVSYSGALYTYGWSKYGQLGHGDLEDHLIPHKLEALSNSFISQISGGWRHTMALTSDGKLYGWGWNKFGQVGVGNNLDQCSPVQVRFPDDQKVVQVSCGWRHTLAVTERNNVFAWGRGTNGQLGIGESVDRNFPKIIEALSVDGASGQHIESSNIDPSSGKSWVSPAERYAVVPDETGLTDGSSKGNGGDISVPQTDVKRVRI
In words: grating-coupled interferometry.

Data set [5] concerns the target T4, recombinant full-length UVR8^W285A from Sf9 cells (Arabidopsis, UniProt Q9FN03 1-440, W285A).
T4 sequence: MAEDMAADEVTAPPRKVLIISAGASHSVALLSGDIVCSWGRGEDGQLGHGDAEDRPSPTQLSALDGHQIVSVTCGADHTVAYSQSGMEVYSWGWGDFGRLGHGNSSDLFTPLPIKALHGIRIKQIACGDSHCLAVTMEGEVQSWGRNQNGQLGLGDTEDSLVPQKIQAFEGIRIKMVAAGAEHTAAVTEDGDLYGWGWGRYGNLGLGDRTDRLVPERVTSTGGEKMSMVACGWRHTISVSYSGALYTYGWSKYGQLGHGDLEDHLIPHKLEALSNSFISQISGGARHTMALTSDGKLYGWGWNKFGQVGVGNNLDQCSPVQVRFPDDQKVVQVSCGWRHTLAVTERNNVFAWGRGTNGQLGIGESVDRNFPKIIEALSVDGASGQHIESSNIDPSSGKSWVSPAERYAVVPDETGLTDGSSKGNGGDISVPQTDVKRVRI
Nature of the data set: grating-coupled interferometry.

B1: recombinant full-length UVR8^W285A from Sf9 cells, Q9FN03 1-440 (natural protein)
chain: MAEDMAADEVTAPPRKVLIISAGASHSVALLSGDIVCSWGRGEDGQLGHGDAEDRPSPTQLSALDGHQIVSVTCGADHTVAYSQSGMEVYSWGWGDFGRLGHGNSSDLFTPLPIKALHGIRIKQIACGDSHCLAVTMEGEVQSWGRNQNGQLGLGDTEDSLVPQKIQAFEGIRIKMVAAGAEHTAAVTEDGDLYGWGWGRYGNLGLGDRTDRLVPERVTSTGGEKMSMVACGWRHTISVSYSGALYTYGWSKYGQLGHGDLEDHLIPHKLEALSNSFISQISGGARHTMALTSDGKLYGWGWNKFGQVGVGNNLDQCSPVQVRFPDDQKVVQVSCGWRHTLAVTERNNVFAWGRGTNGQLGIGESVDRNFPKIIEALSVDGASGQHIESSNIDPSSGKSWVSPAERYAVVPDETGLTDGSSKGNGGDISVPQTDVKRVRI
In general, stoichiometry N refers to a count of units in the complex or per binding partner. Consider B1, for which, in data set [1], the stoichiometry N came to 2.

B2: UVR8^W285F overexpressed in uvr8-7/Pro35S:UVR8^W285F seedlings (natural protein)
chain: MAEDMAADEVTAPPRKVLIISAGASHSVALLSGDIVCSWGRGEDGQLGHGDAEDRPSPTQLSALDGHQIVSVTCGADHTVAYSQSGMEVYSWGWGDFGRLGHGNSSDLFTPLPIKALHGIRIKQIACGDSHCLAVTMEGEVQSWGRNQNGQLGLGDTEDSLVPQKIQAFEGIRIKMVAAGAEHTAAVTEDGDLYGWGWGRYGNLGLGDRTDRLVPERVTSTGGEKMSMVACGWRHTISVSYSGALYTYGWSKYGQLGHGDLEDHLIPHKLEALSNSFISQISGGFRHTMALTSDGKLYGWGWNKFGQVGVGNNLDQCSPVQVRFPDDQKVVQVSCGWRHTLAVTERNNVFAWGRGTNGQLGIGESVDRNFPKIIEALSVDGASGQHIESSNIDPSSGKSWVSPAERYAVVPDETGLTDGSSKGNGGDISVPQTDVKRVRI
As for B2, in data set [2], the “stoichiometry N” value stood at 2.

B3: UVR8^W285A overexpressed in uvr8-7/Pro35S:UVR8^W285A seedlings, Q9FN03 1-440 (natural protein)
chain: MAEDMAADEVTAPPRKVLIISAGASHSVALLSGDIVCSWGRGEDGQLGHGDAEDRPSPTQLSALDGHQIVSVTCGADHTVAYSQSGMEVYSWGWGDFGRLGHGNSSDLFTPLPIKALHGIRIKQIACGDSHCLAVTMEGEVQSWGRNQNGQLGLGDTEDSLVPQKIQAFEGIRIKMVAAGAEHTAAVTEDGDLYGWGWGRYGNLGLGDRTDRLVPERVTSTGGEKMSMVACGWRHTISVSYSGALYTYGWSKYGQLGHGDLEDHLIPHKLEALSNSFISQISGGARHTMALTSDGKLYGWGWNKFGQVGVGNNLDQCSPVQVRFPDDQKVVQVSCGWRHTLAVTERNNVFAWGRGTNGQLGIGESVDRNFPKIIEALSVDGASGQHIESSNIDPSSGKSWVSPAERYAVVPDETGLTDGSSKGNGGDISVPQTDVKRVRI
For the molecule B3, the stoichiometry N in data set [3] was 2.

B4: COP1 WD40 domain (COP1^349–675), recombinant from Sf9 cells (domain or fragment)
chain: TFTRYSRLRVIAEIRHGDIFHSANIVSSIEFDRDDELFATAGVSRCIKVFDFSSVVNEPADMQCPIVEMSTRSKLSCLSWNKHEKNHIASSDYEGIVTVWDVTTRQSLMEYEEHEKRAWSVDFSRTEPSMLVSGSDDCKVKVWCTRQEASVINIDMKANICCVKYNPGSSNYIAVGSADHHIHYYDLRNISQPLHVFSGHKKAVSYVKFLSNNELASASTDSTLRLWDVKDNLPVRTFRGHTNEKNFVGLTVNSEYLACGSETNEVYVYHKEITRPVTSHRFGSPDMDDAEEEAGSYFISAVCWKSDSPTMLTANSQGTIKVLVLAA
For the molecule B4, the binding result in data set [4] and in data set [5] was “binds” in each case.
